Where no end group is shown, it is not given here. The star is where a group is joined. FITC = O=C1OC2(c3ccc(O)cc3Oc3cc(O)ccc32)c2ccc(NC(=S)*)cc21
How the values were obtained:
[1] = biological target: DDB1–DCAF12–DDA1 complex (human | , UniProt Q5T6F0 1-453; Q5T6F0 1-453; Q9BW61 1-102); test: FP
[2] = biological target: biotinylated DCAF12 (Δ1–78) (human, UniProt Q5T6F0 79-453, biotin); test: SPR

{FITC}-IRKPGESEE [FITC-labeled CCT5 peptide] was tested, and the Kd [1] was 130 nM.

{FITC}-LHEWVLREGEE [FITC-labeled MAGEA3 peptide] was tested, and the Kd [1] was 60 nM.

Binder IRKPGESEE [unlabeled CCT5 peptide] has a koff [2] of 0.017 s⁻¹.

LHEWVLREGEE [unlabeled MAGEA3 peptide] showed a koff [2] of 0.06 s⁻¹.

— publication PMC11044963 (2024)
